Data reported in patent publication US20180221513A1, “CONTRAST-AGENT-LABELED PEPTIDE AMPHIPHILE NANOFIBERS” (Northwestern University, priority 2015, published 2018).
peptoid linker = not defined here

Tests used:
[1] = 1H NMRD profiles, fits with modified Florence approach; assay type: physicochemical; details: fits at 37° C.
Protocol: ^1NMRD profiles were collected with a Stelar Spinmaster FFC-2000-1T fast field cycling relaxometer in the 0.01-40 MHz proton Larmor frequency range, at 293 and 310 K. Longitudinal relaxation rates were measured with an error smaller than 1%. Proton relaxivities were calculated by subtracting the diamagnetic contribution of the peptide nanofibers in the absence of Gd(III) from the relaxation rates of the paramagnetic samples, and normalizing to 1 mM Gd(III) concentration. The profiles were analyzed using the Freed model for outer-sphere relaxation (refs. 48, 49; incorporated by reference in their entireties) and the modified Florence NMRD program for the inner-sphere relaxation (refs. 45, 46, 50; incorporated by reference in their entireties). The effect of static ZFS on nuclear relaxation is considered along with transient ZFS, where modulation is responsible for electron relaxation, provided molecular reorientation time is much longer than electron relaxation time (refs 51,52; incorporated by reference in their entireties). In order to establish which parameter was dominant in relaxivity changes, NMRD profiles of each PA were measured. NMRD profiles for all four PAs at 25° and 37° C. are shown in FIG. 3 with parameter fits obtained using the “modified Florence” approach (refs. 44-46;1 incorporated by reference in their entireties). In the fits, a Lipari-Szabo order parameter S^2 was included to consider the effect of local motions which may superimpose to the global motion of the nanostructures. A smaller S^2 value indicates a less restricted local mobility (e.g., a more flexible linkage between fiber and macrocycle). […] The NMRD fits show τm is primarily responsible for the variation in relaxivity observed upon annealing and Ca2+ cross-linking (Table 2). It is contemplated that annealing and calcium addition change macrocycle presentation on the fiber surface, extending them from the structure with increased peptide packing density and facilitating faster water exchange. […] The ^1H NMRD profiles were analyzed assuming one water molecule regularly coordinated to the Gd(III) ion in the presence of freely diffusing outer-sphere water. The contribution of the coordinated water protons […]) to the relaxation of bulk water protons (R1) largely depends on the τM of coordinated water if τ[…], as expected for Gd(HP-DO3A), according to the following relationship: R1=fM(1/[…]+τM)^-1+Ros where f^M is the mole fraction of ligand nuclei in bound positions and Ros is the outer-sphere contribution. […] is calculated by considering the simultaneous presence of both static (D) and transient (Δt) ZFS, as needed for Gd(III) complexes, through the “modified Florence” NMRD program, 4-6 assuming slow rotation, i.e. the molecular tumbling time τR is much longer than the electron relaxation time Tle. The PA fiber's micron-scale size assures that TR could be fixed to a large, constant value (≥100 ns) in the calculation of the relaxation profile. The ^1H NMRD profiles of PA 1 were repeated at both temperatures using the same Δt value of 0.0142 cm-1, D=0.046 cm-1, θ=42° (angle between the z-axis of the ZFS tensor and the metal-water direction) and a correlation time for electron relaxation τV=24 ps. A distance of closest approach of diffusing water molecules (d) of 7-10 Angstroms should be set, i.e. somewhat larger than usually found in isolated Gd(III) chelates (3.5-4 Å). […]

[2] = T1 and T2 relaxivity (r1, r2) at 1.41 T, Bruker Minispect relaxometer; assay type: physicochemical; details: 1.41 tesla
Protocol: Using a Bruker Minispect relaxometer operating at 1.41 T, T1 and T2 relaxivity values (r1 and r2) were determined for each agent (Table 1). […] Thermal annealing followed by addition of CaCl2 caused complex changes in the observed agent relaxivity (Table 1). […] This increased accessibility is consistent with a more extended molecular structure as indicated by SAXS.
All concentrations used in relaxivity determination were obtained using ICP-MS. Samples were digested using ACS reagent grade nitric acid (70%) for a least 2 hours at 70° C. Samples were diluted in filtered, deionized water. A standard containing the elements Bi, Ho, In, Li, Sc, Tb, and Y was added to a final concentration of 5 ng/mL (Inorganic Ventures, Christiansburg, Va., USA). Final nitric acid concentration was 3%. The instrument was calibrated using a serial dilution of Gd(III) standards (Inorganic Ventures, Christiansburg, Va., USA) with nitric acid and internal standard concentrations identical to the samples. Calibration was conducted with 1.000, 5.000, 10.00, 20.00, 50.00, 100.0, and 200.0 ng/mL Gd(III) standards.
T1 Measurements were performed at 1.41 T with a Bruker Minispect mq60 magnet, using an inversion recovery sequence. T2 measurements were acquired using a Carr-Purcell-Meiboom-Gill (CPMG) pulse sequence. PAs were weighed out and dissolved in Millipore water to form 1 mg/mL solutions, and then these solutions were serial diluted to 0.5, 0.25, 0.125, 0.05, and 0.01 mg/mL concentrations. For each concentration, T1 and T2 were measured. These solution concentrations were then measured using ICP-MS for relaxivity determination. Samples were lyophilized and resuspended in 50 mM Tris and 150 mM NaCl buffer. These were then adjusted using small volumes of 0.1 M NaOH to reach pH 7.4. T1 and ICP-MS measurements were then taken of these solutions. The relaxometer tubes were heated at 80° C. for 30 min in a water bath. The bath was allowed to come to room temperature over several hours. T1 times were measured. Finally, 100 μL of 20 mM CaCl2 solution was added to each tube. The tubes were vortex-mixed and allowed to stand for 20 minutes. ICP-MS and T1 measurements were conducted once more.

[3] = ICP-MS of leg muscles for Gd(III) retention after day 4; assay type: in vivo, mice; details: after four days; intramuscular PA gel 1 wt %, 10 mol % Gd(III)-PA
Protocol: To measure degradation in vivo, six wild-type mice received approximately 4 μL injections of PA gels at 1 wt % loaded with 10 mol % Gd(III)-PA relative to C16V3A3E3-NH2. The injections were applied with a modified syringe pump designed to inject while withdrawing the needle to produce a gelled track of PA in situ. Injection volume varied because track length varied slightly with mouse size and small variations in each injection geometry. The tract geometry was chosen to give accurate T1 determinations because imaging slice thickness could be greater without volume averaging effects. A total of five legs were injected with PA1, four legs with PA3, and three with 100% C16V3A3E3-NH2 as a control. Mice were imaged at day 0 immediately after injections and again at day 4. The Gd(III)-PA was clearly visible in all cases (FIG. 5). […]
For Gd(III) analysis, mouse leg muscles were excised and digested in 1 mL of nitric acid per gram of tissue in Teflon tubes. […] Digest was diluted and measured using the same conditions as above.
All measurements used a Thermo X series II ICP-MS (Thermo Fisher Scientific, Waltham, Mass., USA) operating with an ESI SC-2 autosampler (Omaha, Nebr., USA). […] The two most common isotopes of Gd, 157Gd and 158Gd, were measured. 115In and 165Ho were measured as internal standards.

[4] = Addition of CaCl2 to annealed solution

C16-VVVAAAEEE-(peptoid linker)-(Gd(HP-DO3A) macrocycle) (C16-VVVAAAEEE-{peptoid linker-Gd(HP-DO3A)}; reading uncertain; also: Gd(III) chelated in HP-DO3A macrocycle) [PA2, V3A3E3 peptide amphiphile, Gd(III) contrast agent conjugated at the C-terminus without a glycine linker]
τm (water exchange lifetime), best-fit value ([1]; Annealed): 540 ns
τm (water exchange lifetime), best-fit value ([1]; Buffered): 640 ns
τm (water exchange lifetime), best-fit value ([1]; Ca^2+): 410 ns
S^2 (Lipari-Szabo order parameter), best-fit value [1]: 0.3
τlocal, best-fit value [1]: 4 ns
r1 (T1 relaxivity) [2, 4]: 21.7 ± 0.1 mM⁻¹ s⁻¹
r2 (T2 relaxivity) [2, 4]: 45 ± 2 mM⁻¹ s⁻¹
r1 (T1 relaxivity) ([2]; After Thermal Annealing): 16.9 ± 0.2 mM⁻¹ s⁻¹
r2 (T2 relaxivity) ([2]; After Thermal Annealing): 28.6 ± 0.6 mM⁻¹ s⁻¹
r1 (T1 relaxivity) ([2]; H2O): 17.3 ± 0.8 mM⁻¹ s⁻¹
r2 (T2 relaxivity) ([2]; H2O): 39 ± 2 mM⁻¹ s⁻¹
r1 (T1 relaxivity) ([2]; Tris Buffer (pH 7.4)): 16.7 ± 0.2 mM⁻¹ s⁻¹
r2 (T2 relaxivity) ([2]; Tris Buffer (pH 7.4)): 32.2 ± 0.5 mM⁻¹ s⁻¹

CCCCCCCCCCCCCCCC(=O)N[C@H](C(=O)N[C@H](C(=O)N[C@H](C(=O)N[C@@H](C)C(=O)N[C@@H](C)C(=O)N[C@@H](C)C(=O)N[C@@H](CCC(=O)O)C(=O)N[C@@H](CCC(=O)O)C(=O)N[C@@H](CCC(=O)O)C(=O)NCC(=O)N(CC(=O)N(CC(=O)N(CC(N)=O)Cc1cn(CC(O)CN2CCN(CC(=O)O)CCN(CC(=O)O)CCN(CC(=O)O)CC2)nn1)Cc1cn(CC(O)CN2CCN(CC(=O)O)CCN(CC(=O)O)CCN(CC(=O)O)CC2)nn1)Cc1cn(CC(O)CN2CCN(CC(=O)O)CCN(CC(=O)O)CCN(CC(=O)O)CC2)nn1)C(C)C)C(C)C)C(C)C (some centres unmarked) (Gd complex, metal not drawn) [PA3]
Gd(III) retention: remained in the mouse leg (ICP-MS) [3]: 54±9%
